Measurements reported in patent US20140213531A1 (POLYPHOR, published 2014).

Columns and labels:
Experiment in all cases: cell-based or functional assay
[1] = biological target: Coagulation Factor Xa, from human plasma (human, UniProt P00742 41-488, limits assumed)
[2] = biological target: T1, CathepsinG, from human neutrophils (human, UniProt P08311 21-244)
T1 sequence (looked up): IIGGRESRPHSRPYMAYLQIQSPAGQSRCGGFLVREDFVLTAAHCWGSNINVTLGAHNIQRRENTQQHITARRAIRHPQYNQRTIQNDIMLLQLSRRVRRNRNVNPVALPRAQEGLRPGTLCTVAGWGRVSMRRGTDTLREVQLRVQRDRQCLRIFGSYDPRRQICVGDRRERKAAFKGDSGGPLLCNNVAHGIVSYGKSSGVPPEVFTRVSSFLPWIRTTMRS

[3] = biological target: T2, Elastase from human neutrophils (human, UniProt P08246 30-247, limits assumed)
T2 sequence (looked up): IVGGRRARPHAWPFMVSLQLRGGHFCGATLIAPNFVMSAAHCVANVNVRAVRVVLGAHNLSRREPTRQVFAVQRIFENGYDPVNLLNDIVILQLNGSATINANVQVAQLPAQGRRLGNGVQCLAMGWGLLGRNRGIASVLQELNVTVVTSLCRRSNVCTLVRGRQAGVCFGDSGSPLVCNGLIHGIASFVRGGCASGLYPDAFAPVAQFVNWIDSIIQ

[4] = biological target: Thrombin, from Human Plasma, high activity (human, UniProt P00734 328-622)
[5] = biological target: Trypsin, Iodination grade, from human pancreas (human, UniProt P07477 24-247)
[6] = biological target: Chymotrypsin, from human pancreas (human, UniProt P17538 19-263)
Chymotrypsin, from human pancreas, sequence (P17538 19-263): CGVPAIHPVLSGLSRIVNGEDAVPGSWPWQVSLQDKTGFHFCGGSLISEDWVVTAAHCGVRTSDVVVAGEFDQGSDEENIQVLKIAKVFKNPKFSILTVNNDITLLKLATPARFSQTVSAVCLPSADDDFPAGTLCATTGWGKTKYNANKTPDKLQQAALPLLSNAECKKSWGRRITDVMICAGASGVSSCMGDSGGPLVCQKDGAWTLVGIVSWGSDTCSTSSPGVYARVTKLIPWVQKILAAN

Chymase, from human skin = biological target: T3, Chymase, from human skin (human, UniProt P23946 22-247)
T3 sequence (looked up): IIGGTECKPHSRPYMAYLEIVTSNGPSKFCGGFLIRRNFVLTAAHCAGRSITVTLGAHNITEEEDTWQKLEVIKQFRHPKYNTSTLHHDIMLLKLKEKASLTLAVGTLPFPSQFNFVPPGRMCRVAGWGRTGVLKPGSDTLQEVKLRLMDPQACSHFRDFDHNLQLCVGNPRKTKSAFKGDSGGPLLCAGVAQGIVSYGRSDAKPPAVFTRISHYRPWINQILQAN

[7] = biological target: Urokinase from human urine (human, UniProt P00749 21-431, limits assumed)
[8] = biological target: Tryptase, from human lung (human, UniProt Q15661 31-275, limits assumed)
Tryptase, from human lung, sequence (Q15661 31-275 limits assumed): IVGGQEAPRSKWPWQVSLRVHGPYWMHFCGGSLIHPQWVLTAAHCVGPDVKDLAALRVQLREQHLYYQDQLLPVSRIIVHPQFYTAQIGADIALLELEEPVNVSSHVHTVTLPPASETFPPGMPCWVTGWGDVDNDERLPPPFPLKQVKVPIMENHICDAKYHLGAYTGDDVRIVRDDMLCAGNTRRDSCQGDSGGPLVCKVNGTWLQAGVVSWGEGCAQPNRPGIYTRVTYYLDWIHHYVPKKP

Coagulation Factor Xa, from human plasma, sequence (P00742 41-488 limits assumed): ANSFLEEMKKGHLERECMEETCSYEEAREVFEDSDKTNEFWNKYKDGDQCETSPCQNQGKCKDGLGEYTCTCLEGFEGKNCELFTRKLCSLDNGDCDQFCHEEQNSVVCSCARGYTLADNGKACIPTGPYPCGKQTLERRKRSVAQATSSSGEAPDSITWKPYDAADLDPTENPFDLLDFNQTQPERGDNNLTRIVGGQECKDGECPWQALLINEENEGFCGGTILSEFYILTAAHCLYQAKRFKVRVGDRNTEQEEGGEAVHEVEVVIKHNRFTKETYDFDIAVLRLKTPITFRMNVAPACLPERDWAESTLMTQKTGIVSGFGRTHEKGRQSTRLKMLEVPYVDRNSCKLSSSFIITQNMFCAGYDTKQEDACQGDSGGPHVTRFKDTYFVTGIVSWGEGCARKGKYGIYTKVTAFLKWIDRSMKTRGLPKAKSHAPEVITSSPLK

B1: Example 20 (peptide)
peptide: ICTKSDPPXCR
HELM: PEPTIDE1{I.C.T.K.S.D.P.P.[Cha].C.R.[dP].P}$PEPTIDE1,PEPTIDE1,2:R3-10:R3|PEPTIDE1,PEPTIDE1,1:R1-13:R2$$$V2.0
SMILES: CC[C@H](C)[C@@H]1NC(=O)[C@@H]2CCCN2C(=O)[C@H]2CCCN2C(=O)[C@H](CCCNC(=N)N)NC(=O)[C@@H]2CSSC[C@H](NC1=O)C(=O)N[C@@H]([C@@H](C)O)C(=O)N[C@@H](CCCCN)C(=O)N[C@@H](CO)C(=O)N[C@@H](CC(=O)O)C(=O)N1CCC[C@H]1C(=O)N1CCC[C@H]1C(=O)N[C@@H](CC1CCCCC1)C(=O)N2
- % inhibition at 100 µM [1]: 25%
- IC50 [2]: 48 nmol
- IC50 [3]: > 100000 nmol
- % inhibition at 100 µM [4]: 28%
- % inhibition at 100 µM [5]: 97%
- % inhibition at 100 µM [6]: 0%
- % inhibition at 100 µM (Chymase, from human skin): 44.1%
- % inhibition at 100 µM [7]: 6.7%

B2: Example 49 (peptide)
peptide: FCTKSDPPICS
HELM: PEPTIDE1{F.C.T.K.S.D.P.P.I.C.S.[dA].P}$PEPTIDE1,PEPTIDE1,2:R3-10:R3|PEPTIDE1,PEPTIDE1,1:R1-13:R2$$$V2.0
SMILES: CC[C@H](C)[C@@H]1NC(=O)[C@@H]2CCCN2C(=O)[C@@H]2CCCN2C(=O)[C@H](CC(=O)O)NC(=O)[C@H](CO)NC(=O)[C@H](CCCCN)NC(=O)[C@H]([C@@H](C)O)NC(=O)[C@@H]2CSSC[C@H](NC1=O)C(=O)N[C@@H](CO)C(=O)N[C@H](C)C(=O)N1CCC[C@H]1C(=O)N[C@@H](Cc1ccccc1)C(=O)N2
- IC50 [2]: 82 nmol
- % inhibition at 100 µM [8]: 30.5%
- IC50 [3]: > 10000 nmol
- % inhibition at 100 µM [4]: 7.9%
- % inhibition at 100 µM [5]: 96%
- % inhibition at 100 µM [6]: 0%
- % inhibition at 100 µM (Chymase, from human skin): 0%
- % inhibition at 100 µM [7]: 6.2%

B3: Example 19 (peptide)
peptide: ICTKSDPPXCR
HELM: PEPTIDE1{I.C.T.K.S.D.P.P.[Nle].C.R.[dP].P}$PEPTIDE1,PEPTIDE1,2:R3-10:R3|PEPTIDE1,PEPTIDE1,1:R1-13:R2$$$V2.0
SMILES: CCCC[C@@H]1NC(=O)[C@@H]2CCCN2C(=O)[C@@H]2CCCN2C(=O)[C@H](CC(=O)O)NC(=O)[C@H](CO)NC(=O)[C@H](CCCCN)NC(=O)[C@H]([C@@H](C)O)NC(=O)[C@@H]2CSSC[C@H](NC1=O)C(=O)N[C@@H](CCCNC(=N)N)C(=O)N1CCC[C@@H]1C(=O)N1CCC[C@H]1C(=O)N[C@@H]([C@@H](C)CC)C(=O)N2
- % inhibition at 100 µM [1]: 32%
- IC50 [2]: 41 nmol
- IC50 [3]: > 100000 nmol
- % inhibition at 100 µM [4]: 11%
- % inhibition at 100 µM [5]: 94%
- % inhibition at 100 µM [6]: 0%
- % inhibition at 100 µM (Chymase, from human skin): 26.9%
- % inhibition at 100 µM [7]: 4%

B4: Example 23 (peptide)
peptide: FCTXSDPPICY
HELM: PEPTIDE1{F.C.T.[Nle].S.D.P.P.I.C.Y.[dP].P}$PEPTIDE1,PEPTIDE1,2:R3-10:R3|PEPTIDE1,PEPTIDE1,1:R1-13:R2$$$V2.0
SMILES: CCCC[C@@H]1NC(=O)[C@H]([C@@H](C)O)NC(=O)[C@@H]2CSSC[C@H](NC(=O)[C@H]([C@@H](C)CC)NC(=O)[C@@H]3CCCN3C(=O)[C@@H]3CCCN3C(=O)[C@H](CC(=O)O)NC(=O)[C@H](CO)NC1=O)C(=O)N[C@@H](Cc1ccc(O)cc1)C(=O)N1CCC[C@@H]1C(=O)N1CCC[C@H]1C(=O)N[C@@H](Cc1ccccc1)C(=O)N2
- % inhibition at 100 µM [1]: 11%
- IC50 [2]: 38 nmol
- IC50 [3]: > 100000 nmol
- % inhibition at 100 µM [4]: 0%
- % inhibition at 100 µM [5]: 90%
- % inhibition at 100 µM [6]: 4%
- % inhibition at 100 µM (Chymase, from human skin): 60%
- % inhibition at 100 µM [7]: 9%

B5: Example 18 (peptide)
peptide: ICTKSDPPYCR
HELM: PEPTIDE1{I.C.T.K.S.D.P.P.Y.C.R.[dP].P}$PEPTIDE1,PEPTIDE1,2:R3-10:R3|PEPTIDE1,PEPTIDE1,1:R1-13:R2$$$V2.0
SMILES: CC[C@H](C)[C@@H]1NC(=O)[C@@H]2CCCN2C(=O)[C@H]2CCCN2C(=O)[C@H](CCCNC(=N)N)NC(=O)[C@@H]2CSSC[C@H](NC1=O)C(=O)N[C@@H]([C@@H](C)O)C(=O)N[C@@H](CCCCN)C(=O)N[C@@H](CO)C(=O)N[C@@H](CC(=O)O)C(=O)N1CCC[C@H]1C(=O)N1CCC[C@H]1C(=O)N[C@@H](Cc1ccc(O)cc1)C(=O)N2
- IC50 [2]: 47 nmol
- % inhibition at 100 µM [8]: 88.3%
- IC50 [3]: > 100000 nmol
- % inhibition at 100 µM [4]: 0%
- % inhibition at 100 µM [5]: 84%
- % inhibition at 100 µM [6]: 25%
- % inhibition at 100 µM (Chymase, from human skin): 32.5%

B6: Example 81 (peptide)
peptide: XCTASXPPQCY
HELM: PEPTIDE1{[Nle].C.T.A.S.[CCCCCCCC[C@H](N[*:1])C(=O)[*:2]].P.P.Q.C.Y.[dP].P}$PEPTIDE1,PEPTIDE1,2:R3-10:R3|PEPTIDE1,PEPTIDE1,1:R1-13:R2$$$V2.0
SMILES: CCCCCCCC[C@@H]1NC(=O)[C@H](CO)NC(=O)[C@H](C)NC(=O)[C@H]([C@@H](C)O)NC(=O)[C@@H]2CSSC[C@H](NC(=O)[C@H](CCC(N)=O)NC(=O)[C@@H]3CCCN3C(=O)[C@@H]3CCCN3C1=O)C(=O)N[C@@H](Cc1ccc(O)cc1)C(=O)N1CCC[C@@H]1C(=O)N1CCC[C@H]1C(=O)N[C@@H](CCCC)C(=O)N2
- % inhibition at 100 µM [1]: 8.7%
- % inhibition at 100 µM [2]: 61.3%
- IC50 [3]: 28 nmol
- % inhibition at 100 µM [4]: 13.1%

B7: Example 56 (peptide)
peptide: ICTKSDPPYCR
HELM: PEPTIDE1{I.C.T.K.S.D.P.P.Y.C.R.[dP].P}$PEPTIDE1,PEPTIDE1,2:R3-10:R3|PEPTIDE1,PEPTIDE1,1:R1-13:R2$$$V2.0
SMILES: CC[C@H](C)[C@@H]1NC(=O)[C@@H]2CCCN2C(=O)[C@H]2CCCN2C(=O)[C@H](CCCNC(=N)N)NC(=O)[C@@H]2CSSC[C@H](NC1=O)C(=O)N[C@@H]([C@@H](C)O)C(=O)N[C@@H](CCCCN)C(=O)N[C@@H](CO)C(=O)N[C@@H](CC(=O)O)C(=O)N1CCC[C@H]1C(=O)N1CCC[C@H]1C(=O)N[C@@H](Cc1ccc(O)cc1)C(=O)N2
- IC50 [2]: 47 nmol
- % inhibition at 100 µM [8]: 88.3%
- IC50 [3]: > 100000 nmol
- % inhibition at 100 µM [4]: 0%
- % inhibition at 100 µM [5]: 84%
- % inhibition at 100 µM [6]: 25%
- % inhibition at 100 µM (Chymase, from human skin): 32.5%
